≈ marks a conversion by molar mass, not a printed value. Where two headings read alike, the source gives them in different places. One block for each molecule: values may come before it. Numbered stars: 1 amine (or outer) side, 2 acyl side, 3 side chain; on linkers, the order of the positions; unused ones are H or OH. Bridge positions count the residues as written; N and C are the ends. Square brackets hold non-standard residues; d marks the D form. Primed or numbered codes have the meaning given here. Peptide text beside a SMILES is read from it. * marks the point of attachment. MB(12) = Monomer B (PyrS), pyrrolidine stapling residue with N-allyl carbamate; R6 = (R)-2-(5-hexenyl)alanine, C=CCCCC[C@@](C)(N[*:1])C(=O)[*:2]; S6 = (S)-2-(5-hexenyl)alanine, C=CCCCC[C@](C)(N[*:1])C(=O)[*:2]; MC = Monomer C = PyrR, Alloc-pyrrolidine stapling residue; MA = Monomer A (Az), N-Alloc azetidine stapling residue; S7 = C[C@@](CCCCCC=[*:3])(N[*:1])C(=O)[*:2]; R8 = C=CCCCCCC[C@@](C)(N)C(=O)O; MB(7) = not defined here; Octyl = CCCCCCCC*
Columns and labels:
[1] = tested on: TCF/LEF Luciferase reporter HEK293 cell lines; experiment: TCF/LEF reporter assay; assay type: cell-based; details: Table 2
Procedure: FIG. 2. […] FIG. 2 depicts exemplary data from TCF/LEF reporter assays. Y-axes illustrate luminescence, and X-axes illustrate concentrations of peptides. […] TCF/LEF Luciferase reporter HEK293 cell lines (BPS Bioscience) were treated with dilution series of FP0025c and FP00217c Isomer 2 for 18 hours. 300 ng/mL of Wnt3a (Peprotech) was added to the cells for the final 6 hours of incubation. Luciferase activity was measured using Bright-Glo Luciferase Assay (Promega) according to manufacturer's protocol.
In some embodiments, a provided assay is a TCF/LEF reporter assay. In some embodiments, in an exemplary such assay, TCF/LEF Luciferase reporter HEK293 cell lines (BPS Bioscience) were treated with dilution series of provided peptides for 18 hours. 300 ng/mL of Wnt3a (Peprotech) was added to the cells for the final 6 hours of incubation. Luciferase activity was measured using Bright-Glo Luciferase Assay (Promega) according to manufacturer's protocol. […] Applicant also notes that teachings of the present disclosure are not restricted to a particular mechanism of action of described agents.

[2] = target: T1, full-length beta-catenin (Axin site) (Homo sapiens, UniProt P35222); experiment: Competition fluorescence polarization assay (Axin site probe); assay type: binding; details: competition fluorescence polarization, Table 2; read-out: in vitro FP EC50
T1 construct: 15 nM full-length beta-catenin, 20 nM FITC labeled peptide in buffer
T1 sequence (P35222 1-781): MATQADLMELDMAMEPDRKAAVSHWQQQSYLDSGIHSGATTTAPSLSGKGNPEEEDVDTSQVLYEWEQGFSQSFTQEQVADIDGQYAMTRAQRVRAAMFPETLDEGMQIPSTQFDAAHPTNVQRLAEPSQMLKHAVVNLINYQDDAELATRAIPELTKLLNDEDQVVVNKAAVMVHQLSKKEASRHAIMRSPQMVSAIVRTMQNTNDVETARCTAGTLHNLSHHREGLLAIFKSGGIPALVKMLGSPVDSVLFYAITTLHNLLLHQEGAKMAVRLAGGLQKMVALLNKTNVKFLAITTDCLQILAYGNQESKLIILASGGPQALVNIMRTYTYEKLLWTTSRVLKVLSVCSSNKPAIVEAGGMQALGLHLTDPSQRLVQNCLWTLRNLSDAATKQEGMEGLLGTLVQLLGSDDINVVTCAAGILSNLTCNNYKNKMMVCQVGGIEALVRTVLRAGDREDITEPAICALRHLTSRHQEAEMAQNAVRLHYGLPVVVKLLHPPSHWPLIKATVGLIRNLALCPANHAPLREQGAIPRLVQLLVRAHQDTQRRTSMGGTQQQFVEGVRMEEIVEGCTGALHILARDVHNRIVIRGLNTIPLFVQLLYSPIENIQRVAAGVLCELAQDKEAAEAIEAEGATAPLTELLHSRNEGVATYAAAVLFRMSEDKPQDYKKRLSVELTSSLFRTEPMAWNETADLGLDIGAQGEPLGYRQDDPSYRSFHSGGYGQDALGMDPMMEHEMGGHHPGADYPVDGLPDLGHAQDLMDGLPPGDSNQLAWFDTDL
In short: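 Competition FP: 15 nM full-length β-catenin pre-incubated 5 min with 20 nM FITC-labelled stapled Axin-site peptide, then titrated peptide added (3-fold series from 5 μM) for 15 min in the dark. Buffer 50 mM Tris pH 8.0, 250 mM NaCl, 2% glycerol, 0.5 mM EDTA; duplicate reads.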

[3] = Solubility in DPBS (A280 of supernatant); assay type: physicochemical; details: DPBS
In short: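 Dried peptide reconstituted in DPBS in triplicate, vortexed, sonicated and centrifuged. Supernatant A280 measured; concentration calculated using the tryptophan extinction coefficient.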

[4] = target: T2, biotinylated beta-catenin (Homo sapiens, UniProt P35222); experiment: Surface Plasmon Resonance (Biacore); assay type: binding
T2 sequence (P35222 1-781): T1 sequence (P35222 1-781)
Procedure: Additionally or alternatively, binding to beta-catenin may be measured by Surface Plasmon Resonance. In an exemplary assay, approximately 6 nmol dried peptide diluted in buffer (50 mM Tris pH 8.0, 300 mM NaCl, 2% glycerol, 0.5 mM TCEP, 0.5 mM EDTA, 0.005% Tween-20, 1 mg/mL CM Dextran, 0.02% w/v sodium azide) was assayed on a Biacore X100 using the Biacore Biotin CAPture Kit (GE Healthcare) and biotinylated beta-catenin. Results were analyzed using the Biacore X100 Evaluation Software. […] FPO217c (Isomer 2) bound to the armadillo domain of β-catenin with a Kd of 2 nM.

full-length beta-catenin [5] = target: T3, full-length beta-catenin (UniProt P35222 2-781, limits assumed); experiment: competition FP; amino staple (cyclic)
T3 construct: mature; also called full-length ß-Catenin; β-catenin
T3 sequence (looked up): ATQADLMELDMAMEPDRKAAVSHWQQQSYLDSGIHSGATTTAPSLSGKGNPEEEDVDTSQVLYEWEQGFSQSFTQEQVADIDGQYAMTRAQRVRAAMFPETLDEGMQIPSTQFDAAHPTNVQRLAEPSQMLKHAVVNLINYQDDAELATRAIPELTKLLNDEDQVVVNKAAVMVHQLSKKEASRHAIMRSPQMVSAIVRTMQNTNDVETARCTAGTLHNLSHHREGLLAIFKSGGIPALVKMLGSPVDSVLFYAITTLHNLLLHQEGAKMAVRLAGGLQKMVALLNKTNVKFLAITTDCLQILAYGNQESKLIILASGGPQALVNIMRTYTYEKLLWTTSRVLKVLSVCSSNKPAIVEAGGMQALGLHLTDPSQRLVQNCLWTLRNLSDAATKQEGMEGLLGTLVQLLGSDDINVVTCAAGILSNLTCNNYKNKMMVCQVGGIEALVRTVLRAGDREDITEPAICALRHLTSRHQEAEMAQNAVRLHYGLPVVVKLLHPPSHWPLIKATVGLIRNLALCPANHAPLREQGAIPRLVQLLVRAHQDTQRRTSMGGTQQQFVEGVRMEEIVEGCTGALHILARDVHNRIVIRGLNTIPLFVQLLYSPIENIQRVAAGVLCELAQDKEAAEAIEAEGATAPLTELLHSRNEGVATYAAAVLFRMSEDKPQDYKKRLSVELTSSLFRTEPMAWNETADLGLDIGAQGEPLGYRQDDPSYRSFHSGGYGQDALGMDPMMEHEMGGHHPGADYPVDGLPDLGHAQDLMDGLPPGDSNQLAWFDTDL
Procedure: (§1) In some embodiments, a competition fluorescence polarization assay is used to assess binding of provided compounds to beta-catenin. In an exemplary procedure, solutions of provided compounds, e.g., provided stapled peptides, were prepared in a buffer (e.g., 50 mM Tris pH 8.0, 250 mM NaCl, 2% glycerol, 0.5 mM EDTA, 0.02% w/v sodium azide) using a 3-fold serial dilution from 5 µM. Probe solution (15 nM full-length ß-Catenin, 20 nM FITC labeled peptide in buffer) was prepared and incubated for a period of time, e.g., 5 minutes, and the a volume, e.g., 40 µL per well plated in suitable plate, e.g., a black polystyrene 384-well plate (Corning). Equal volume of the serial diluted peptide was added to the plate and incubated protected from light for 15 minutes prior to read. Reads were performed on a Spectramax M5 (Molecular Devices) in duplicate. Suitable probe was FITC-PEG1-PQ-S5-ILD-S5-HVRRVWR (SEQ ID NO: 1) (hydrocarbon staple formed by two S5 via olefin metathesis) and/or FITC-bA-PQ-S5-ILD-S5-HVRRVWR (SEQ ID NO: 3) (hydrocarbon staple formed by two S5 via olefin metathesis). […] Another peptide, FPO217c (Ac-AR_8ILDAHIM$B5$RVW (SEQ ID NO: 280), with N-terminal proline removed and valine replaced with isoleucine compared to FP0025c) was prepared.

full-length beta-catenin [6] = target: T3, full-length beta-catenin; experiment: competition FP, grade of FP EC50 (+: 500-5000 nM)
In short: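 Compound 3-fold serially diluted from 5 µM in Tris pH 8.0, 250 mM NaCl buffer, added to premixed 15 nM full-length β-catenin and 20 nM FITC-labelled stapled axin-site peptide probe. Incubated 15 min in the dark, polarization read in duplicate.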

full-length beta-catenin [7] = target: T3, full-length beta-catenin; experiment: competition FP, grade of FP EC50 (++: 100-500 nM)
Procedure: as §1

Molecule: 0ct-P-A-R8-I-L-D-A-H-V-MB-R-V-W-1NH2 (Octyl-PA[R8]ILDAHV[MB(12)]RVW-NH2; staple 3-10) [FP0324c]
- TCF/LEF Reporter Inhibition at 10 μM [1]: 51%

Molecule: CC[C@H](C)[C@H](NC(=O)[C@H](CO)NC(=O)[C@H](C)NC(=O)[C@@H]1CCCN1C(C)=O)C(=O)N[C@@H](CC(C)C)C(=O)N[C@@H](CC(=O)O)C(=O)N[C@@H](C)C(=O)N[C@@H](Cc1c[nH]cn1)C(=O)N[C@H](C(=O)N[C@@H](CCC(N)=O)C(=O)N[C@@H](CCCNC(=N)N)C(=O)N[C@H](C(=O)N[C@@H](Cc1c[nH]c2ccccc12)C(N)=O)C(C)C)C(C)C [FP0098, Ac-P-A-S-I-L-D-A-H-V-Q-R-V-W-NH2] (Ac-PASILDAHVQRVW-NH2)
- TCF/LEF Reporter Inhibition at 10 μM [1]: 18%

B1: FP0735a (peptide)
peptide: Ac-PQ[R6]ILD[MA]HVRRVWR-NH2
modifications: staple 3-7; also: amino staple: CO2 extruded from carbamate staple with Pd(PPh3)4
notes: also called FP-0735 (amino staple)
- EC50 (full-length beta-catenin [5]): 2360 nM
- FP EC50 (full-length beta-catenin [6]): 500 to 5000 nM

B2: FP0738a (peptide)
peptide: Ac-PQ[S7]ILD[MA]HVRRVWR-NH2
modifications: staple 3-7; also: amino staple: CO2 extruded from carbamate staple with Pd(PPh3)4
notes: also called FP-0738 (amino staple); S7/Az
- FP EC50 (full-length beta-catenin [7]): 100 to 500 nM
- EC50 (full-length beta-catenin [5]): 200 nM

B3: FP0745a (peptide)
peptide: Ac-PQ[MC]ILD[R6]HVRRVWR-NH2
modifications: staple 3-7; also: amino staple: CO2 extruded from carbamate staple with Pd(PPh3)4
notes: also called FP-0745 (amino staple); PR/R6
- FP EC50 (full-length beta-catenin [7]): 100 to 500 nM
- EC50 (full-length beta-catenin [5]): 210 nM

B4: FP0767a (peptide)
peptide: Ac-PQ[R6]ILD[MC]HVRRVWR-NH2
modifications: staple 3-7; also: amino staple (-N(R')-), from carbamate staple by metathesis then Pd(0) CO2 extrusion
notes: also called FP-0767 (amino staple)
- EC50 (full-length beta-catenin [5]): 700 nM
- FP EC50 (full-length beta-catenin [6]): 500 to 5000 nM

B5: FP0763a (peptide)
peptide: Ac-PQ[S7]ILD[MB(7)]HVRRVWR-NH2
modifications: staple 3-7; reading uncertain; also: amino staple: CO2 extruded from carbamate staple with Pd(PPh3)4
notes: also called FP-0763 (amino staple)
- EC50 (full-length beta-catenin [5]): 1110 nM
- FP EC50 (full-length beta-catenin [6]): 500 to 5000 nM

B6: FP0736a (peptide)
peptide: Ac-PQ[S6]ILD[MA]HVRRVWR-NH2
modifications: staple 3-7; also: amino staple: CO2 extruded from carbamate staple with Pd(PPh3)4
notes: also called FP-0736 (amino staple)
- FP EC50 (full-length beta-catenin [7]): 100 to 500 nM
- EC50 (full-length beta-catenin [5]): 470 nM

B7: FP0725a (peptide)
peptide: Ac-PQ[MA]ILD[R6]HVRRVWR-NH2
modifications: staple 3-7; also: amino staple: CO2 extruded from MA carbamate staple with Pd(PPh3)4
notes: also called FP-0725 (amino staple)
- EC50 (full-length beta-catenin [5]): 580 nM
- FP EC50 (full-length beta-catenin [6]): 500 to 5000 nM

Results, then the molecule that gave them:

- EC50 [2]: < 100 nM
- solubility ([3]; Table 2, read-out: Solubility): 32 µM (≈ 49.9 µg/mL)
- solubility ([3]; Table 3 Part A, read-out: Solubility in DPBS): 42 µM (≈ 65.4 µg/mL)
- Kd ([4]; Table 2, read-out: Kd by SPR): 3 nM
- Kd ([4]; Table 3 Part A, read-out: Binding Kd): 3 nM
Molecule: CC[C@H](C)[C@@H]1NC(=O)[C@H](Cc2c[nH]cn2)NC(=O)[C@H](C)NC(=O)[C@H](CC(=O)O)NC(=O)[C@H](CC(C)C)NC(=O)[C@H]([C@@H](C)CC)NC(=O)[C@](C)(NC(=O)[C@H](C)NC(C)=O)CCC=CCOC(=O)N(C)CCC[C@@](C)(C(=O)N[C@@H](CCCNC(=N)N)C(=O)N[C@H](C(=O)N[C@@H](Cc2c[nH]c3ccccc23)C(N)=O)C(C)C)NC1=O [FP0509c, Ac-A-R4-I-L-D-A-H-I-MH-R-V-W-NH2]

- EC50 [2]: 100 to 500 nM
- Kd ([4]; Table 2, read-out: Kd by SPR): 14 nM
Molecule: CC[C@H](C)[C@@H]1NC(=O)[C@@](C)(NC(=O)[C@H](CCC(N)=O)NC(=O)[C@@H]2CCCN2C(C)=O)CCCC=CCCC[C@@](C)(C(=O)N[C@@H](Cc2c[nH]cn2)C(=O)N[C@H](C(=O)N[C@@H](CCCNC(=N)N)C(=O)N[C@@H](CCCNC(=N)N)C(=O)N[C@H](C(=O)N[C@@H](Cc2c[nH]c3ccccc23)C(=O)N[C@@H](CCCNC(=N)N)C(N)=O)C(C)C)C(C)C)NC(=O)[C@H](CC(=O)O)NC(=O)[C@H](CC(C)C)NC1=O [FP0787s, Ac-P-Q-S5-I-L-D-S5-H-V-R-R-V-W-R-NH2]

Reference: patent publication US11198713B2, “Agents modulating beta-catenin functions and methods thereof” (FOG PHARMACEUTICALS, INC., priority 2017, dated 2021)
